Experimental findings from paper PMC8064835 (Cell, 2021) are described below.

Experiment [1] addresses T1, SARS-CoV-2 receptor-binding domain (RBD) (SARS-CoV-2, UniProt P0DTC2). Nature of the experiment: ELISA. (An ELISA detects its analyte on a solid surface through an enzyme-linked reagent.)
In experiment [2] the target is T1, SARS-CoV-2 receptor-binding domain (RBD). Nature of the experiment: crystal structure.

B1: BG4–14 IgG1 (antibody, V domains shown)
VH: not shown
VL: QSALTQPASVSGSPGQSITISCTGTSSDVGSYNLVSWYQHHPGKAPKLMIYEVSKRPSGVSNRFSGSKSGNTASLTISGLQAEDETDYYCCSYAGSSTLVFGGGTKLTVL
Regarding B1, the binding result in experiment [1] is reported as “binds”.

B2: BG10–19 IgG1 (antibody, V domains shown)
VH: EVQLVQSGAEVKKPGESLKISCKGSGYSFTSYWIGWVRQMPGKGLEWMGVIYPGDSDTRYSPSFQGQVTISADKSISTAYLQWSSLKASDTAMYYCARTQWGYNYGSHFFYMDVWGKGTTVTVSS
VL: QSVLTQPPSASGTPGQRVTISCSGSSSNIGSDHVYWYQQLPGTAPKLFIYRNNQRPSGVPDRFSGSKSGTSASLAISGLRSEDEADYYCAAWDASLSGYVFGTGTKVTVL
In the case of B2, the binding result in experiment [1] is listed as “binds”.

B3: BG10–19 Fab (Fab, V domains shown)
VH: EVQLVQSGAEVKKPGESLKISCKGSGYSFTSYWIGWVRQMPGKGLEWMGVIYPGDSDTRYSPSFQGQVTISADKSISTAYLQWSSLKASDTAMYYCARTQWGYNYGSHFFYMDVWGKGTTVTVSS
VL: QSVLTQPPSASGTPGQRVTISCSGSSSNIGSDHVYWYQQLPGTAPKLFIYRNNQRPSGVPDRFSGSKSGTSASLAISGLRSEDEADYYCAAWDASLSGYVFGTGTKVTVL
For B3, the binding result in experiment [1] is listed as “binds”.

B4: BG4–25 Fab (Fab, V domains shown)
VH: EVQLVESGGGLIQPGGSLRLSCAASGITVVRNYMTWVRQAPGKGLEWVSVIYSGGTTYYADSVKGRFTISRDNSKNTMYLQMNSLRAEDTAIYYCARDLEVVGAMDVWGQGTTVTVSS
VL: EIVLTQSPGTLSLSPGERATLSCRASQSVPSSYLAWYQQKPGQAPRLLIYGASSRATGIPDRFSGSGSGTDFTLTISRLEPEDFAVYYCQQYGSPMYTFGQGTKLEIK
B4: in experiment [2], the binding result was “binds”.
